Key:
[1] = biological target: T1, thrombin-catalyzed activation of protein C (Homo sapiens, UniProt P00734); experiment: Activity to promote the activation of protein C (Example 9-(4)); assay type: biochemical; details: peptide solution 10 nM, thrombin 15 nM, protein C 3.2 μM, 37° C., one hour
Description: With respect to the polypeptide purified in Example 9-(3), the activity to promote the activation of protein C is measured according to the following method. That is, 10 μl of a peptide solution (10 nM), 10 μl of thrombin (15 nM), 10 μl of protein C (3.2 μM), 10 μl of 10×Assay buffer [0.5M Tris HCl (pH 7.5) containing 1% BSA, 1M NaCl and 20 mM CaCl2 ] and 60 μl of distilled water are mixed together. The mixture is reacted at 37° C. for one hour, and antithrombin III and hepalin are added at final concentrations of 100 nM and lu/ml, respectively, thereby stopping the reaction. To measure the concentration of activated protein C, the concentration of AMC ([…]) liberated from a 200 μM substrate of Boc-Leu-Ser-Thr-Arg-MCA in a buffer containing 0.05M Tris HCl (pH 8.0) and 0.1M CsCl is measured at an excitation wavelength of 380 nm and a measuring wavelength of 440 nm.

[2] = biological target: T1, thrombin-catalyzed activation of protein C; experiment: Assay of the activity to promote the thrombin-catalyzed activation of protein C (Example 1-(3), fluorogenic substrate Boc-Leu-Ser-Thr-Arg-MCA); assay type: biochemical, bovine; design: 3 μl of thrombin (manufactured and sold by Sigma Chemical Company, catalog No. T-6759, 20 ng/μl); purchased Sigma Chemical Company T-6759; details: for calcium ion concentration at which the activity is highest: activation of protein C, calcium ion 0 to 5 mM; for activity to promote the thrombin-catalyzed activation of protein C (in words): purified polypeptide from COS-1, calcium ion concentrations of 0 to 5 mM; for amount of activated protein C with reaction time (in words): from D71 strain
Description: 5 μl of the supernatant of the culture of COS-1 cells is transformed by each of plasmids pSV2TMD7 and pSV2TMD8, 3 μl of thrombin (manufactured and sold by Sigma Chemical Company, catalog No. T-6759, 20 ng/μl), 5 μl of 10×Assay Buffer containing 1M NaCl, 30 mM CaCl2, 1% calf serum albumin and 0.5M tris-HCl buffer (pH 8.5) and 29.5 μl of distilled water are mixed together and allowed to stand at 37° C. for 5 minutes, followed by the addition of 7.5 μl protein C (derived from bovine, 0.2 μg/μl) to the mixture. The reaction is conducted at 37° C. for 30 minutes, and terminated by adding 6.25 μl of a stop solution (20 mM tris-HCl buffer, pH7.5, containing 100 mM NaCl, 0.3A280 anti-thrombin III and 100 μg/ml heparin).
The activity of activated protein C is measured by first adding 10 μl of Boc-Leu-Ser-Thr-Arg-MCA (manufactured and sold by Peptide Institute, The Foundation (Japan), 5 mg/ml), 5 μl of 5M CsCl and 495 μl of a substrate reaction buffer (50 mM tris-HCl buffer containing 100 mM NaCl (pH 8.5)), next allowing the reaction to proceed at 37° C. for 20 minutes, then terminating the reaction by adding 55 μl of acetic acid, and finally measuring the concentration of liberated AMC ([…]) by means of a spectrofluorometer (model RF-540, manufactured and sold by Shimadzu Corporation, Japan) at an excitation wavelength of 380 nm and an emission wavelength of 440 nm. The obtained fluorescence intensity is compared with the fluorescence intensity of a solution having a known AMC concentration to determine the amount of the liberated AMC. The value obtained by deducting from this amount the amount of AMC in the case where an aqueous solution containing no polypeptide of the present invention is added, represents the activity of the polypeptide to promote the thrombin-catalyzed activation of protein C. The activity to produce 1 nM of activated protein C per ml of reaction mixture and per minute is defined as 1 u (unit).
(§1) With respect to the polypeptide solutions (0.4 μg/ml) purified and quantitated in Example 1-(5)-(d), the activity of polypeptides to promote the thrombin-catalyzed activation of protein C is measured according to the method described in Example 1-(3). The CaCl2 concentration of 10×Assay buffer is adjusted so that the activities at calcium ion concentrations of 0 to 5 mM are determined. Also, with respect to protein C having no Gla domain (hereinafter referred to as "GDPC") which is prepared by chymotrypsin treatment according to the method of N. L. Esmon [J. Biol. Chem. Vol. 258, pp. 5548-5553 (1983)]and which is used instead of protein C, the activity measurement is carried out within the same range of calcium concentration.

[3] = biological target: T2, thrombin-catalyzed activation of GDPC (protein C having no Gla domain) (Homo sapiens, UniProt P00734); experiment: Same assay with protein C having no Gla domain (GDPC) instead of protein C; assay type: biochemical; details: calcium ion concentrations of 0 to 5 mM
T2 construct: 3 μl of thrombin (manufactured and sold by Sigma Chemical Company, catalog No. T-6759, 20 ng/μl); purchased Sigma Chemical Company T-6759
Description: as §1

[4] = system: thrombin-catalyzed platelet aggregation; experiment: Platelet aggregation-inhibiting activity (Platelet Rich Plasma, HEMA TRACER IV); assay type: cell-based; details: polypeptide purified from Acremonium chrysogenum (Example 6(4))
Description: The activity of each of the polypeptides of the present invention to inhibit the thrombin-catalyzed platelet aggregation is evaluated using platelet aggregation measuring apparatus HEMA TRACER IV (manufactured and sold by NIKO Bioscience, Inc., Japan). Measurement is carried out according to the manual attached thereto. When 40 μl of a 20 NIH unit/ml thrombin solution (manufactured and sold by SIGMA Chemical Co., U.S.A., T 6759) is added to 180 μl of a Platelet Rich Plasma (PRP) platelet solution (3×10^5 cells/μl) and incubated, the aggregation of platelets occurs. […] The aggregation of platelets is determined on the basis of the transparency, assuming the transparency of Platelet Poor Plasma (PPP) solution as 100%. The ratio of platelet aggregation is plotted against the incubation time (0 min: the time when thrombin or a mixture of thrombin and one of the polypeptides is added to the PRP solution). It is confirmed that the platelet aggregation is inhibited when one of the polypeptides of the present invention is added.

[5] = biological target: T1, thrombin-catalyzed activation of protein C; experiment: Activated protein C formation against reaction time with purified polypeptide (Example 4-(6)); assay type: biochemical; details: polypeptide purified from Acremonium chrysogenum strains D71 and M31 (Example 6(4))
Description: To 0.02M Tris-HCl buffer (pH 8.5) containing 0.1M NaCl, 0.5 mM CaCl2 and 10 mg/ml BSA are added 50 μg/ml protein C, 5 nM thrombin and 5 nM of each of the purified polypeptides of the present invention, and reacted at 37° C. To each of the reaction mixtures are added 300 μg/ml antithrombin III (manufactured and sold by Sigma Chemical Company, U.S.A.) and 5 mM EDTA to terminate the reaction. Then, the amount of the activated protein C produced by the reaction is determined by the method described in Example 1-(3) in which a synthetic substrate is used.

[6] = biological target: thrombin-catalyzed conversion of fibrinogen to fibrin (Homo sapiens, UniProt P00734); experiment: Anticoagulating activity: clotting time of a fibrinogen solution; assay type: biochemical; details: polypeptide purified from Acremonium chrysogenum (Example 6(4))
Description: The activity of each of the polypeptides of the present invention to inhibit the thrombin-catalyzed conversion of fibrinogen to fibrin so as to inhibit blood coagulation, is determined by measuring clotting time using Coagulometer KC-10A (manufactured and sold by Heinrich Amelung A.G., Germany). Illustratively stated, to 0.05M Tris-HCl buffer (pH 7.5) containing 5 mM CaCl2 and 0.1M NaCl is added 3.0 μg of fibrinogen (Fraction I, manufactured and sold by Sigma Chemical Company, U.S.A.). To the resultant mixture is added 0 to 50 nM of each of the purified polypeptides of the present invention. Then, 10 nM thrombin is added to the mixture in such an amount that the total amount of the mixture becomes 0.4 ml, and then the coagulation time of the mixture is measured.

Substance	production of activated protein C [1] [pmol]	calcium ion concentration at which the activity is highest [2] [mM]	activity to promote the thrombin-catalyzed activation of protein C (in words) [2]	activity in the activation of GDPC (in words) [3]	thrombin-catalyzed platelet aggregation (in words) [4]	Specific activity ([2]; COS-1 culture supernatant, activity per amount of polypeptide by ELISA) [u/mg]	specific activity (in words) ([2]; deletion mutants expressed in COS-1 cells)	amount of activated protein C with reaction time (in words) ([2]; purified by DIP-thrombin column (Example 8(2)))	amount of activated protein C with reaction time (in words) ([2]; purified by anti-TM monoclonal antibody column 1 (Example 8(4)))	amount of activated protein C with reaction time (in words) ([2]; purified by anti-TM monoclonal antibody column 2 (Example 8(5)))	Activity ([2]; supernatant of culture of COS-1 cells transformed with the plasmid, 1 u = 1 nM activated protein C per ml per minute) [u/ml]	amount of activated protein C with reaction time (in words) [5]	clotting time of fibrinogen solution against amount of polypeptide (in words) [6]
D123Asp: polypeptide of amino acid residues up to the 516th position of human thrombomodulin (FIG. 55), expressed from pSV2TMD1	18.6	0.4 to 0.5	high activity	low activity	–	–	–	–	–	–	–	–	–
E456Asp: polypeptide of the 367th to 480th amino acid residues of human thrombomodulin, from cells transfected with pSV2TMD7 or Acremonium strain D71	18.3	0.4 to 0.5	high activity	low activity	inhibited	5809	same level of specific activity as that of the 115-amino acid polypeptide	increased with the lapse of the reaction time	increased with the lapse of reaction time	increased with lapse of reaction time	1210	increased with the lapse of reaction time	the longer the clotting time

Reference: US5574007A, “Polypeptide capable of interacting with thrombin” (Asahi Kasei Kogyo Kabushiki Kaisha, priority 1990, dated 1996)
